The target in data set [1] is T1, SpNanR (Streptococcus pneumoniae, UniProt A0A0H2ZPE9 1-283). The data set can be described thus: MST; range over three sites; MST: 20 mM Tris-HCl pH 8.0, 300 mM NaCl, 0.05% Tween-20, 20 C, 20 nM FAM-DNA; AUC: 50 nM FAM-DNA, 0.019-5 uM SpNanR, buffer not in the material. The note with it: protein: recombinant; tags: none; chain copies: 2; label: 5'-FAM on sense strand.

For data set [2], the target named is SpNanR T18A (Streptococcus pneumoniae, UniProt A0A0H2ZPE9 1-283, T18A). Nature of the data set: MST; protein up to 5000 nM; MST: 20 mM Tris-HCl pH 8.0, 300 mM NaCl, 0.05% Tween-20, 20 C, 20 nM FAM-DNA; AUC: 50 nM FAM-DNA, 0.019-5 uM SpNanR, buffer not in the material. The settings on record: protein: recombinant; tags: none; chain copies: 2; label: 5'-FAM on sense strand.

Data set [3] has as its target SpNanR R56A (Streptococcus pneumoniae, UniProt A0A0H2ZPE9 1-283, R56A). The description is as above. The settings on record: protein: recombinant; tags: none; chain copies: 2; label: 5'-FAM on sense strand.
In data set [4] the target is SpNanR R67A (Streptococcus pneumoniae, UniProt A0A0H2ZPE9 1-283, R67A). Described as above. The note with it: protein: recombinant; tags: none; chain copies: 2; label: 5'-FAM on sense strand.
Data set [5] concerns the target T1, SpNanR. Nature of the data set: fluorescence-detection AUC (sedimentation velocity); no effector; Hill n 2.3; MST: 20 mM Tris-HCl pH 8.0, 300 mM NaCl, 0.05% Tween-20, 20 C, 20 nM FAM-DNA; AUC: 50 nM FAM-DNA, 0.019-5 uM SpNanR, buffer not in the material. The settings on record: protein: recombinant; tags: none; chain copies: 2; label: 5'-FAM on sense strand.
Data set [6] concerns the molecule itself. The data set can be described thus: AUC; sedimentation velocity, SpNanR 4.3–227.7 μM without N-acetylmannosamine-6-phosphate, 20 mM Tris–HCl pH 8.0, 300 mM NaCl, 20°C, 42 000 rpm; weight-averaged s fitted to a dimer–tetramer self-association model; constant of: tetramer to dimers.
Data set [7] deals with the molecule itself. The data set can be described thus: AUC; sedimentation velocity, SpNanR 0.27–153.5 μM with 2 mM N-acetylmannosamine-6-phosphate, 20 mM Tris–HCl pH 8.0, 300 mM NaCl, 20°C, 42 000 rpm; constant of: tetramer to dimers.
Data set [8] deals with the molecule itself. Nature of the data set: SAXS with in-line size exclusion chromatography; SpNanR without N-acetylmannosamine-6-phosphate. In general terms: SEC sorts molecules by how far they enter the pores of the column.
Data set [9] deals with the molecule itself. Nature of the data set: AUC; sedimentation velocity of SpNanR variants and wild type at 15 μM, without N-acetylmannosamine-6-phosphate.
Data set [10] deals with the molecule itself. Nature of the data set: AUC; sedimentation velocity of SpNanR variants and wild type at 15 μM, with N-acetylmannosamine-6-phosphate.
Data set [11] deals with T1, SpNanR. Nature of the data set: MST; protein up to 5000 nM; MST: 20 mM Tris-HCl pH 8.0, 300 mM NaCl, 0.05% Tween-20, 20 C, 20 nM FAM-DNA; AUC: 50 nM FAM-DNA, 0.019-5 uM SpNanR, buffer not in the material. The note with it: protein: recombinant; tags: none; chain copies: 2; label: 5'-FAM on sense strand.

A word on the Kd: it is the constant that tells how readily two partners part at equilibrium. By stoichiometry N is commonly meant a count of units in the complex or per binding partner.

Changes are numbered by the printed parent chain. Names and notes keep the numbering of the source. Values joined by “and” are separate entries in the source; they are usually repeats but may differ in a detail not shown here. Equal values may be shown once. A value given as a limit tells only on which side of the number the result lay.

B1: nanE recognition sequence (site 2), FAM (dsDNA)
DNA 1: TCTGAAAGTACTTTTAGA
DNA 2: TCTAAAAGTACTTTCAGA
As for B1, the Kd in data set [1] was roughly 603 nM; in [5] it was 476 ± 75 nM. Besides, the binding result in [2], in data set [3] and in [4] was “no binding” in each case.

B2: cryptic site downstream of siaA operon (site 4) (dsDNA)
DNA 1: TCTGAAACTACTTTCAGA
DNA 2: TCTGAAAGTAGTTTCAGA
In the case of B2, the Kd in data set [1] was roughly 603 nM.

B3: nanA recognition sequence (site 1) (dsDNA)
DNA 1: TCTGAAACTACTTTCAAA
DNA 2: TTTGAAAGTAGTTTCAGA
In the case of B3, the Kd in data set [1] was roughly 603 nM.

B4: Streptococcus pneumoniae NanR (SpNanR), wild type (natural protein, UniProt A0A0H2ZPE9 1-283, looked up)
chain: MDKPDIATIIDSHFEEMTDLEQEIARYFLQAETITDDLSSQQVTQKLHISQAALTRFAKKCGFTGYREFIFQYQHQAENQANQVSKHSPLTKRVLRSYSNMREQTQDLIDEIQLERIAQLIEDAERIYFFGTGSSGLVAREMKLRFMRLGVVCEALTDQDGFAWTTSIMDENCLVLGFSLSGSTPSILDSLLDAKEMGAKTVLFTSVPNKNSQTYTETVLVATHSQPSYIQRISAQLPMLFFIDLIYAYFLEINRESKEKIFNSYWENKKLNGYRRQKRVRKS
notes: RpiR family transcriptional regulator NanR of Streptococcus pneumoniae, recombinant full length; intact mass 32 611 Da; Self-associates between dimer and tetramer; cloned into pET30ΔSE; no tag; also called SpNanR^WT; apo-SpNanR
Take B4: the Kd in data set [6] is 97000 nM; in [7], less than 200 nM. The “stoichiometry N” value in [8] is 4 and 2.

B5: SpNanR^R148A (natural protein)
chain: B4 chain with R148A
notes: NanR of Streptococcus pneumoniae with R148A; Variant of the full-length recombinant SpNanR; source: E. coli BL21(DE3), recombinant
In the case of B5, the “stoichiometry N” value in [9] was 2.

B6: SpNanR^D160A (natural protein)
chain: B4 chain with D160A
notes: NanR of Streptococcus pneumoniae with D160A; Variant of the full-length recombinant SpNanR; source: E. coli BL21(DE3), recombinant
For the molecule B6, the “stoichiometry N” value was 2 in data set [9] and 4 in data set [10].

B7: nanE G4T (dsDNA)
DNA 1: TCTTAAAGTACTTTTAGA
DNA 2: TCTAAAAGTACTTTAAGA
As for B7, in data set [11], the binding result is given as “no binding”.

B8: nanE A10C (dsDNA)
DNA 1: TCTGAAAGTCCTTTTAGA
DNA 2: TCTAAAAGGACTTTCAGA
Turning to B8, the binding result in [11] is “no binding”.

The record behind these values is publication PMC13635753, “Mechanism of NanR transcriptional activation of sialic acid metabolism in Streptococcus pneumoniae” (Nucleic Acids Research, 2025).
